Measurements as given in publication PMC3765318, “An efficient protocol for the purification and labeling of entire yeast septin rods from E.coli for quantitative in vitro experimentation” (BMC Biotechnology, 2013).
One block for each binder: values may come before it.

Columns and labels:
[1] = target: the molecule itself; assay: co-sedimentation + other: fluorescence microscopy; 2 uM SNAP tagged rods labeled with BG-TMR, dialyzed into low salt buffer (50 mM NaCl, 50-200 mM Tris-HCl pH 8.0), 16 h at 4 C, pelleted at 100,000 g, on poly-L-lysine slides
[2] = target: T1, SNAP tagged septin rod labeled with BG-biotin (S. cerevisiae, UniProt P32458 1-415; P32468 1-407; P32457 1-520; P25342 1-322, biotin, covalently attached with BG-Biotin to the SNAP tag); assay: SPR; same dataset as a8; sensograms fitted with a two state reaction model (to compensate for background binding of Bni5 to the antibody-coated surface); contact 120 or 180 s, dissociation 600 s; conditions: both partners purified
T1 construct: Cdc11, S. cerevisiae septin; ORF amplified by PCR from genomic DNA; Cdc12, S. cerevisiae septin; Cdc3, S. cerevisiae septin; Cdc10, S. cerevisiae septin; calculated molecular weight 432.5 kDa; also called septin rods; biotinylated septin rods; source: E. coli BL21(DE3), four subunits co-expressed, purified (IMAC, Resource Q anion exchange), labeled with BG-Biotin; not shown: S tag, N-terminal, …

[3] = target: T1, SNAP tagged septin rod labeled with …; assay: SPR; Biacore X100; biotinylated SNAP tagged septin rods captured (about 100 RU) on an anti-biotin antibody coated CM5 chip; Bni5 0-1600 nM as analyte in MSP buffer (10 mM MES, 150 mM NaCl, 0.05% Tween 20, pH 7.4); KD from the analyte response plotted against concentration; conditions: both partners purified

B1: SNAP tagged septin rod labeled with BG-TMR (complex, S. cerevisiae)
chain 1: MSGIIDASSALRKRKHLKRGITFTVMIVGQSGSGRSTFINTLCGQQVVDTSTTILLPTDTSTEIDLQLREETVELEDDEGVKIQLNIIDTPGFGDSLDNSPSFEIISDYIRHQYDEILLEESRVRRNPRFKDGRVHCCLYLINPTGHGLKEIDVEFIRQLGSLVNIIPVISKSDSLTRDELKLNKKLIMEDIDRWNLPIYNFPFDEDEISDEDYETNMYLRTLLPFAIIGSNEVYEMGGDVGTIRGRKYPWGILDVEDSSISDFVILRNALLISHLHDLKNYTHEILYERYRTEALSGESVAAESIRPNLTKLNGSSSSSTTTRRNTNPFKQSNNINNDVLNPASDMHGQSTGENNETYMTREEQIRLEEERLKAFEERVQQELLLKRQELLQREKELREIEARLEKEAKIKQEE
chain 2: MSAATATAAPVPPPVGISNLPNQRYKIVNEEGGTFTVMLCGESGLGKTTFINTLFQTVLKRADGQQHRQEPIRKTVEIDITRALLEEKHFELRVNVIDTPGFGDNVNNNKAWQPLVDFIDDQHDSYMRQEQQPYRTKKFDLRVHAVLYFIRPTGHGLKPIDIETMKRLSTRANLIPVIAKADTLTAQELQQFKSRIRQVIEAQEIRIFTPPLDADSKEDAKSGSNPDSAAVEHARQLIEAMPFAIVGSEKKFDNGQGTQVVARKYPWGLVEIENDSHCDFRKLRALLLRTYLLDLISTTQEMHYETYRRLRLEGHENTGEGNEDFTLPAIAPARKLSHNPRYKEEENALKKYFTDQVKAEEQRFRQWEQNIVNERIRLNGDLEEIQGKVKKLEEQVKSLQVKKSHLK
chain 3: MSLKEEQVSIKQDPEQEERQHDQFNDVQIKQESQDHDGVDSQYTNGTQNDDSERFEAAESDVKVEPGLGMGITSSQSEKGQVLPDQPEIKFIRRQINGYVGFANLPKQWHRRSIKNGFSFNLLCVGPDGIGKTTLMKTLFNNDDIEANLVKDYEEELANDQEEEEGQGEGHENQSQEQRHKVKIKSYESVIEENGVKLNLNVIDTEGFGDFLNNDQKSWDPIIKEIDSRFDQYLDAENKINRHSINDKRIHACLYFIEPTGHYLKPLDLKFMQSVYEKCNLIPVIAKSDILTDEEILSFKKTIMNQLIQSNIELFKPPIYSNDDAENSHLSERLFSSLPYAVIGSNDIVENYSGNQVRGRSYPWGVIEVDNDNHSDFNLLKNLLIKQFMEELKERTSKILYENYRSSKLAKLGIKQDNSVFKEFDPISKQQEEKTLHEAKLAKLEIEMKTVFQQKVSEKEKKLQKSETELFARHKEMKEKLTKQLKALEDKKKQLELSINSASPNVNHSPVPTKKKGFLR
chain 4: MDPLSSVQPASYVGFDTITNQIEHRLLKKGFQFNIMVVGQSGLGKSTLINTLFASHLIDSATGDDISALPVTKTTEMKISTHTLVEDRVRLNINVIDTPGFGDFIDNSKAWEPIVKYIKEQHSQYLRKELTAQRERFITDTRVHAILYFLQPNGKELSRLDVEALKRLTEIANVIPVIGKSDTLTLDERTEFRELIQNEFEKYNFKIYPYDSEELTDEELELNRSVRSIIPFAVVGSENEIEINGETFRGRKTRWSAINVEDINQCDFVYLREFLIRTHLQDLIETTSYIHYEGFRARQLIALKENANSRSSAHMSSNAIQR
modifications: tetramethylrhodamine (TMR), covalently attached with BG-TMR to the SNAP tag
notes: Cdc11, S. cerevisiae septin; ORF amplified by PCR from genomic DNA; Cdc12, S. cerevisiae septin; Cdc3, S. cerevisiae septin; Cdc10, S. cerevisiae septin; also called SNAP tagged, TMR labeled septin filaments; TMR labeled septin filaments; source: E. coli BL21(DE3), four subunits co-expressed, purified (IMAC, Resource Q anion exchange), labeled with BG-TMR; copies: 2 + 2 + 2 + 2
- binding result [1]: binds

- Kd [2]: 253 nM
- koff [2]: 0.037 s⁻¹
- kon [2]: 51000 M⁻¹ s⁻¹
- Kd [3]: 313 nM
B2: Bni5 (natural protein, S. cerevisiae, UniProt P53890 1-448, looked up)
chain: MGLDQDKIKKRLSQIEIDINQMNQMIDENLQLVEPAEDEAVEDNVKDTGVVDAVKVAETALFSGNDGADSNPGDSAQVEEHKTAQVHIPTENEANKSTDDPSQLSVTQPFIAKEQITHTAIAIGDSYNSFVANSAGNEKAKDSCTENKEDGTVNIDQNRGEADVEIIENNDDEWEDEKSDVEEGRVDKGTEENSEIESFKSPMPQNNTLGGENKLDAELVLDKFSSANKDLDIQPQTIVVGGDNEYNHESSRLADQTPHDDNSENCPNRSGGSTPLDSQTKIFIPKKNSKEDGTNINHFNSDGDGQKKMANFETRRPTNPFRVISVSSNSNSRNGSRKSSLNKYDSPVSSPITSASELGSIAKLEKRHDYLSMKCIKLQKEIDYLNKMNAQGSLSMEDGKRLHRAVVKLQEYLDKKTKEKYEVGVLLSRHLRKQIDRGENGQFWIGTK
notes: Bni5, S. cerevisiae; BNI5 PCR amplified from genomic DNA, cloned in a pET15b derived expression plasmid; primers are in Additional file 1; also called purified Bni5 (analyte protein); 6his tagged Bni5; source: E. coli BL21(DE3), purified (IMAC, size exclusion chromatography)
